The target of one data set is T1, rOs1BGlu4 (Oryza sativa, UniProt Q5N863).
T1 construct: gene BGLU4; full-length ORF (483 aa, no signal peptide, about 55 kDa) in pET32a(+), E. coli Origami B(DE3); Trx-His6 tag removed with enterokinase
T1 sequence (Q5N863 1-483): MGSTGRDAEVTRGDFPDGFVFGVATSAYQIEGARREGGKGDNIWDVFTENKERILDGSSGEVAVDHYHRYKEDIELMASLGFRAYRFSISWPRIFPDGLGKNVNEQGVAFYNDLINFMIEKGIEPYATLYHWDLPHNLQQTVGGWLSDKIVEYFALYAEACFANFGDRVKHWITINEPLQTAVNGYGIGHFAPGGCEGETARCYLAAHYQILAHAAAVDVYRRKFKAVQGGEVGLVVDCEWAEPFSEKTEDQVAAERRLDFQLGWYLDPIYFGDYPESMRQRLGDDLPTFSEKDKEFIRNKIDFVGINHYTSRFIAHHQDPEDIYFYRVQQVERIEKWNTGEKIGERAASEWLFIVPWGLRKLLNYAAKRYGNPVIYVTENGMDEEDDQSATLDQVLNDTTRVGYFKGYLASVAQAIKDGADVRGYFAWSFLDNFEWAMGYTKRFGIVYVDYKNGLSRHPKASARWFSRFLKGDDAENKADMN
The experiment in a line: inhibition of pNPGlc hydrolysis, […] nm. The class given is biochemical. The settings on record: read-out: Relative activity remaining (%).

Substrate in data set [1]: O=[N+]([O-])c1ccc(O[C@@H]2OC[C@H](O)[C@H](O)[C@H]2O)cc1
In words: purified protein. Format: biochemical, Oryza sativa. The note with it: 50 mM sodium phosphate pH 6.5, 30°C (standard assay).

Substrate in data set [2]: C[C@H]1O[C@@H](Oc2ccc([N+](=O)[O-])cc2)[C@H](O)[C@@H](O)[C@H]1O
In words: purified protein. The note with it: 50 mM sodium phosphate pH 6.5, 30°C (standard assay). The class given is biochemical, Oryza sativa.

Substrate in data set [3]: O=[N+]([O-])c1ccc(O[C@@H]2O[C@H](CO)[C@H](O)[C@H](O)[C@H]2O)cc1
The experiment in a line: purified protein. The note with it: 50 mM sodium phosphate pH 6.5, 30°C (standard assay).

Substrate in data set [4]: O=[N+]([O-])c1ccc(O[C@@H]2O[C@H](CO)[C@@H](O)[C@H](O)[C@@H]2O)cc1
In words: purified protein. The settings on record: 50 mM sodium phosphate pH 6.5, 30°C (standard assay).

Substrate in data set [5]: O=[N+]([O-])c1ccc(O[C@@H]2O[C@H](CO)[C@@H](O)[C@H](O)[C@H]2O)cc1
In words: purified protein. The settings on record: 50 mM sodium phosphate pH 6.5, 30°C (standard assay).

Substrate in data set [6]: O=[N+]([O-])c1ccc(O[C@@H]2O[C@H](CO)[C@@H](O[C@@H]3O[C@H](CO)[C@@H](O)[C@H](O)[C@H]3O)[C@H](O)[C@H]2O)cc1
In words: initial-rate hydrolysis, glucose release by peroxidase/glucose oxidase assay, nonlinear Michaelis-Menten fit. Format: biochemical, Oryza sativa. The settings on record: 50 mM sodium phosphate pH 6.5, 30°C (standard assay).

In general, remaining activity refers to the activity still measured, relative to the control. Broadly, the Km is the substrate concentration at which the rate is half of its maximum. As a reminder, the kcat is the number of substrate molecules converted per active site and unit of time at saturation. By kcat/Km is commonly meant the second-order rate constant that governs catalysis at low substrate concentration.

Take `OC1OC[C@H](O)[C@H](O)[C@H]1O` (stereo partly drawn) [L-Arabinose]: on rOs1BGlu4, the remaining activity at 10000 µM is 61%.
For the molecule `O=C1O[C@H](CO)[C@@H](O)[C@H](O)[C@H]1O` [δ-glucono-lactone], the remaining activity at 1000 µM on rOs1BGlu4 came out at 14%.
As for `OC1OC[C@@H](O)[C@H](O)[C@H]1O` (stereo partly drawn) [D-Xylose], the remaining activity at 10000 µM on rOs1BGlu4 worked out at 85%.
Same read-out and setting: the figure for `OC[C@H]1OC(O)[C@@H](O)[C@@H](O)[C@@H]1O` (stereo partly drawn) [D-Mannose] is 73%; for `OC[C@H]1OC(O)[C@H](O)[C@@H](O)[C@@H]1O` (stereo partly drawn) [D-Glucose] it is 90%; for `N[C@H]1C(O)O[C@H](CO)[C@@H](O)[C@@H]1O` (stereo partly drawn) [D-Glucosamine] it is 84%.
Still for that read-out and setting: the figure for `OC[C@H]1OC(O)[C@H](O)[C@@H](O)[C@H]1O` (stereo partly drawn) [D-Galactose] is 93%.

B1: rOs1BGlu4 (Oryza sativa Japonica Group) (protein)
chain: T1 sequence (Q5N863 1-483)
notes: full-length ORF (483 aa, no signal peptide, about 55 kDa) in pET32a(+), E. coli Origami B(DE3); Trx-His6 tag removed with enterokinase
Take B1: the Km in “purified protein [1]” came to 380 ± 20 µM; in “purified protein [2]” it was 710 ± 20 µM; in “purified protein [3]”, 7330 ± 320 µM; in “purified protein [4]” it was 2240 ± 30 µM; in “purified protein [5]”, 710 ± 20 µM; in data set [6], 140 ± 10 µM. The kcat was determined as 0.52 s⁻¹ in “purified protein [1]”; 6.61 ± 0.08 s⁻¹ in “purified protein [2]”; 3.16 s⁻¹ in “purified protein [3]”; 1.25 s⁻¹ in “purified protein [4]”; 12.8 s⁻¹ in the data set “purified protein [5]”; 3.44 ± 0.18 s⁻¹ in data set [6]. For the same molecule, the kcat/Km in “purified protein [1]” was determined as 1370 M⁻¹ s⁻¹; in “purified protein [2]”, 9340 M⁻¹ s⁻¹; in “purified protein [3]”, 430 M⁻¹ s⁻¹; in the data set “purified protein [4]”, 560 M⁻¹ s⁻¹; in “purified protein [5]”, 17900 M⁻¹ s⁻¹; in data set [6] it was 24400 M⁻¹ s⁻¹.

The values above are taken from paper PMC4011751, “Recombinant Expression and Characterization of the Cytoplasmic Rice β-Glucosidase Os1BGlu4” (PLoS ONE, 2014).
